The values that follow come from paper PMC5147500 (2016).

In the assay the target is retromer (Homo sapiens, UniProt O75436). As to the kind of experiment: ITC. For orientation: ITC needs no label: the signal is the heat of the interaction.

The molecule AQPELYLLNTMDADSLVSR (in presence of SNX3) [DMT1-II recycling signal] showed a Kd of approximately 127 µM.

By Kd is commonly meant the free concentration of one partner at which half of the binding sites on the other are occupied at equilibrium, for simple one-to-one binding.
